Assay results reported in patent publication US20030148958A1 (PROCTER AND GAMBLE, published 2003).

T1: CRF2R
T1 sequence (Q13324 whole entry, species assumed, looked up): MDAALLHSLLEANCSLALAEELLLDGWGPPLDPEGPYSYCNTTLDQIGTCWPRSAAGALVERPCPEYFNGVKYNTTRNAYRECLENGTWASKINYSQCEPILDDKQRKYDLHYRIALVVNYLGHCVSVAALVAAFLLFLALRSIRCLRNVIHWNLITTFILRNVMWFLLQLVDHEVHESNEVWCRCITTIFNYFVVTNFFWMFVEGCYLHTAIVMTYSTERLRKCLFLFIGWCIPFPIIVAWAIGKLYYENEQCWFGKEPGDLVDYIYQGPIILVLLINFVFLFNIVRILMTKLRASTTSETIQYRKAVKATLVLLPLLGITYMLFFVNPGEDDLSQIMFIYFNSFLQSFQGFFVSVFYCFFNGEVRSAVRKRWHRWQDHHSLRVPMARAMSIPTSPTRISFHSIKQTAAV


Experiments:
CRF2R = target: T1, CRF2R; experiment: cell-based or functional assay
CRF1R = experiment: cell-based or functional assay
Wherever CRF1R Emax % is given: reference of the scale not given here.
Wherever CRF2R Emax % is given: reference of the scale not given here.

Row | Binder | CRF2R EC50 (CRF2R) [nM] | CRF2R Emax % (CRF2R) [%] | CRF1R EC50 (CRF1R) [nM] | CRF1R Emax % (CRF1R) [%]
1 | ZGPPISIDLPQYLLRKMIEIEKQEKEKQQAANNALLLATI (C-terminal amide) [SEQ ID NO 227] | 33.6 | 95 | 918 | 18
2 | ZGPPISIDLPLELLRKMIEIEKQEKEKQQAANNALLLDTI (C-terminal amide) [SEQ ID NO 235] | 25.7 | 100 | 806 | 70
3 | ZGPPISIDLPTYLLRKMIEIEKQEKEKQQAANNALLLDTI (C-terminal amide) [SEQ ID NO 232] | 45.3 | 100 | 1000 | 7
4 | ZGPPISIDLPFHLLRKMIEIEKQEKEKQQAANNALLLDTI (C-terminal amide) [SEQ ID NO 228] | 7.1 | 100 | 276 | 100
5 | ZGPPISIDLPLELLRKMIEIEKQEKEKQQAANNALLLATI (C-terminal amide) [SEQ ID NO 234] | 20.6 | 100 | 434 | 96
6 | ZGPPISIDLPFYLLRKMIEIEKQEKEKQQAANNALLLDTI (C-terminal amide) [SEQ ID NO 230] | 8.1 | 100 | 219 | 100
7 | ZGPPISIDLPTYLLRKMIEIEKQEKEKQQAANNALLLATI (C-terminal amide) [SEQ ID NO 233] | 46.1 | 95 | 1000 | 11
8 | ZGPPISIDLPLYLLRKMIEIEKQEKEKQQAANNALLLATI (C-terminal amide) [SEQ ID NO 245] | 7.5 | 93 | 381 | 100
9 | ZGPPISIDLPLQLLEKMIEIEKQEKEKQQAANNALLLATI (not fully specified; C-terminal amide) [SEQ ID NO 249] | 12.2 | 92 | 1000 | 50
10 | ZGPPISIDLPLHLLRKMIEIEKQEKEKQQAANNALLLATI (C-terminal amide) [SEQ ID NO 241] | 12.6 | 99 | 308 | 99
11 | ZGPPISIDLPLYLLRKMIEIEKQEKEKQQAANNALLLDTI (C-terminal amide) [SEQ ID NO 244] | 8.8 | 98 | 300 | 100
12 | ZGPPISIDLPLQLLRKMIEIEKQEKEKQQAANNALLLDTI (not fully specified; C-terminal amide) [SEQ ID NO 248] | 19.6 | 98 | 1000 | 32
13 | ZGPPISIDLPFHLLRKMIEIEKQEKEKQQAANNALLLATI (C-terminal amide) [SEQ ID NO 229] | 10.3 | 100 | 298 | 100
14 | ZGPPISIDLPIYLLRKMIEIEKQEKEKQQAANNALLLATI (C-terminal amide) [SEQ ID NO 237] | 22.2 | 93 | 1000 | 18
15 | ZGPPISIDLPLHLLRKMIEIEKQEKEKQQAANNALLLDTI (C-terminal amide) [SEQ ID NO 240] | 22 | 100 | 915 | 80
16 | ZGPPISIDLPFYLLRKMIEIEKQEKEKQQAANNALLLATI (C-terminal amide) [SEQ ID NO 231] | 5.9 | 100 | 94 | 100
17 | ZGPPISIDLPIYLLRKMIEIEKQEKEKQQAANNALLLDTI (C-terminal amide) [SEQ ID NO 236] | 40.4 | 97 | 1000 | 15
18 | ZGPPISIDLPLHLLRKMIEIEKQEKEKQQATTNARLLDTV (C-terminal amide) [SEQ ID NO 238] | 16.7 | 100 | 753 | 88
19 | ZGPPISIDLPLYLLRKMIEIEKQEKEKQQATTNARLLDTV (C-terminal amide) [SEQ ID NO 242] | 29 | 94 | 358 | 99
20 | ZGPPISIDLPLHLLRKMIEIEKQEKEKQQATTNARLLDRV (C-terminal amide) [SEQ ID NO 239] | 13.2 | 100 | 587 | 80
21 | ZGPPISIDLPLYLLRKMIEIEKQEKEKQQATTNARLLDRV (C-terminal amide) [SEQ ID NO 243] | 16.8 | 100 | 440 | 96
22 | ZGPPISIDLPLQLLEKMIEIEKQEKEKQQATTNARLLDRV (C-terminal amide) [SEQ ID NO 247] | 18.8 | 100 | 1000 | 34
23 | ZGPPISIDLPLQLLRKMIEIEKQEKEKQQATTNARLLDTV (C-terminal amide) [SEQ ID NO 246] | 38.8 | 100 | 1000 | 33
